Measured values taken from patent EP4353742A1 (Todd Pharm Co., Ltd., dated 2024).
Substitutions are numbered along the chain they refer to.

B1: FGF21 variant ① (Gln184Glu & Gln201His & Ala208Thr) (ligand)
chain: DSSPLLQFGGQVRQRYLYTDDAQQTEAHLEIREDGTVGGAADQSPESLLQLKALKPGVIQILGVKTSRFLCQRPDGALYGSLHFDPEACSFRELLLEDGYNVYQSEAHGLPLHLPGNKSPHRDPAPRGPARFLPLPGLPPALPEPPGILAPEPPDVGSSDPLSMVGPSHGRSPSYTS
B2: FGF21 variant ③ (combination of variants ① and ②) (ligand)
chain: B1 chain with S163G, P167G, S168G
B3: FGF21 variant ② (Ser195Gly & Pro199Gly & Ser200Gly) (ligand)
chain: B1 chain with E152Q, S163G, P167G, S168G, H169Q, T176A

Target: FGFR1c
Assay: cell-based or functional assay

Binder | EC50 of FGFR1c activation (luciferase reporter, HEK293 cells expressing FGFR1c and β-Klotho), fold increase compared to the wild type [fold]
B1 | 1.73
B2 | 6.03
B3 | 4.38
